The values that follow come from patent publication US12338268B2, “Compositions and methods for treating protein aggregation-associated diseases” (The Board of Trustees of the Leland Stanford Junior …, priority 2019, dated 2025).

The target of experiment [1] is T1, mutant Huntingtin exon 1 (mHttQ51) (Homo sapiens, UniProt P42858, INS38QQQQQQQQQQQQQQQQQQQQQQQQQQQQQQQ).
T1 construct: mutant Huntingtin exon 1 containing a pathogenic stretch of 51 glutamines (mHttQ51); GST (N, cleaved yes); made in house; host or cells: E. coli Rosetta 2(DE3) pLysS
T1 sequence (P42858 with tags, fused parts or gaps with the stated changes limits assumed): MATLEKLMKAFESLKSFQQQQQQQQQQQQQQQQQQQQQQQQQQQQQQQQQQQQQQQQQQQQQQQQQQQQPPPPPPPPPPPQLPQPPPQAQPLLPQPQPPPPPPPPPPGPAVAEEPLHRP
Put plainly: In vitro filter trap aggregation assay of mutant Huntingtin exon 1. The class given is biochemical. As for the experimental part: Mutant Huntingtin and PolyQ51 aggregation reactions were performed at concentration 3 μM of mHttQ51, 0.044 Units/μl acTEV protease (Invitrogen, Carlsbad, CA, USA), and respective concentrations of Ovalbumin (Sigma) or purified NAC chaperone variants. Aggregation was conducted in TEV reaction buffer (Invitrogen) and incubated at 30° C. AtxQ78 was buffer exchanged into TEV reaction buffer using 7K MWCO Zeba Spin Desalting Columns (Thermo Fisher) to initiate aggregation. AtxQ78 aggregation reactions were performed at 30 μM of Ataxin-3 in reaction buffer (20 mM sodium phosphate pH 7.5, 25 mM NaCl, 6 mM MgCl2, 2 mM DTT, 5% (v/v) glycerol) and incubated at 37° C. Samples at varied time-points were then taken and combined in a 1:1 ratio with a 4% (w/v) SDS, 100 mM DTT solution, boiled for 5 min at 95° C., and stored at −20° C. Samples were then filtered through a 0.22 μm cellulose acetate membrane (Whatman) and washed with 0.1% (w/v) SDS. Membrane was probed using an S-tag antibody (Abcam) for mHttQ51 and PolyQ51, and with a His-tag antibody (Abcam) for AtxQ78.

The next experiment deals with HttQ44-BodipyTMR. As to the kind of experiment: Fluorescence quenching assay of HttQ44-BodipyTMR aggregation. The note with it: titrations of chaperones, 24-hour time period. In kind it is biochemical. From the text: FIGS. 17A-17B show a fluorescence quenching assay as a reporter for early events in Htt aggregation.
HttQ44-BodipyTMR, sequence (P42858 with tags, fused parts or gaps with the stated changes limits assumed): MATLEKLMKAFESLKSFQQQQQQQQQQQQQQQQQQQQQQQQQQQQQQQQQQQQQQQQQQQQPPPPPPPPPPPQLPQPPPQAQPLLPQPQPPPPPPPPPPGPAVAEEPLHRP
A fluorescence quenching assay was used to monitor aggregation of HttQ44-BodipyTMR with titrations of various chaperones over a 24-hour time period.

“Also recorded” adds a separate entry of the source.

B1: ApiCCT1-bNAC: fusion protein comprising the apical domain of CCT1 fused with the bNAC N-terminal sequence at its C-terminus (protein)
chain: MGVPGYALNCTVASQAMPKRIAGGNVKIACLDLNLQKARMAMGVQINIDDPEQLEQIRKREAGIVLERVKKIIDAGAQVVLTTKGIDDLCLKEFVEAKIMGVRRCKKEDLRRIARATGATLVSSMSNLEGEETFESSYLGLCDEVVQAKFSDDECILIKGTSKAAAAALEGGSGGSMKETIMNQEKLAKLQAQVRIGGKGTARRKKKVVHRTAT
With B1, in experiment [1] (ApiCCT1-bNAC from 15 μM to 0.03 μM, Htt 3 μM, filter trap), the “HttQ51 aggregation, titration” value is listed as “can suppress HttQ51 aggregation at sub-molar concentrations”. In experiment [1] (system with purified components, listed as fused protein), the “polyQ aggregation of huntingtin exon1” value is on record as “works even more potently to inhibit huntingtin exon1 aggregation; also recorded: can suppress aggregation even at sub-molar ratios”. Moreover, the “Htt aggregation over time (fluorescence quenching)” value in the experiment on HttQ44-BodipyTMR was “better and more stably suppresses Htt aggregation overtime compared to the ApiCCT1 and bNAC N-terminal domain individually”.
